In publication PMC11742849:

Biological target: recombinant mouse TfR extracellular domain protein (UniProt Q62351)
Assay: ELISA
Conditions: ligand concentration 20 nM (est. from x axis); mTfR coated on plate; signal normalized to each construct's own maximum; parent: est. 78; read off a plot

UniProt Q62351, sequence (Q62351 89-763): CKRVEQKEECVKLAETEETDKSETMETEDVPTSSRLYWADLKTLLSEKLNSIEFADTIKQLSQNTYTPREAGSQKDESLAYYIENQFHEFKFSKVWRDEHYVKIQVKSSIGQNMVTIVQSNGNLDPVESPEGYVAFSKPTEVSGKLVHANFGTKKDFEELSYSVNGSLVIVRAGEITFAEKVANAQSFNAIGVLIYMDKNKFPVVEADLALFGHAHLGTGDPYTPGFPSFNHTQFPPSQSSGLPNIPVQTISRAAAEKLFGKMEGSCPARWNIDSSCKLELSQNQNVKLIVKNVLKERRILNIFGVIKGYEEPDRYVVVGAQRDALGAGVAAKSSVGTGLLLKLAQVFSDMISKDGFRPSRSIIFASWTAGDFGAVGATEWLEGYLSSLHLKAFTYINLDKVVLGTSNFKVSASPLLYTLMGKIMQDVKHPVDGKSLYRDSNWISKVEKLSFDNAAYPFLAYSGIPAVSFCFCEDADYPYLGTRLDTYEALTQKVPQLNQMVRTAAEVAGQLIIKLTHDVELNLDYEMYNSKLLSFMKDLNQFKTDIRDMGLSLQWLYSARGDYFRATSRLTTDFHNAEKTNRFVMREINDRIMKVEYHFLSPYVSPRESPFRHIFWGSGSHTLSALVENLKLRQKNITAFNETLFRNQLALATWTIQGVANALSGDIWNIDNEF

| response (% of own maximum OD450) | Substance |
| --- | --- |
| 24 | scFc-scFv8D3 Y103F |
| 39 | scFc-scFv8D3 S101A |
| 17 | scFc-scFv8D3 H102A |
| 26 | scFc-scFv8D3 T100V |
